Data as given in patent US20170267766A1 (PIERRE FABRE MEDICAMENT, published 2017).
Changes are numbered by the printed parent chain.

B1: m212A11 (antibody, V domains shown)
VH: QVQLQQSGPELVKPGASVKMSCKASGYTFTSYYIHWVKQRPGQGLEWIGWIWPGDGSTKYNEKFKGKTTLTADKSSSTAYMFLSSLTSEDSAVYFCASPMITPNYAMDYWGQGASVTVSS
VL: DIQMTQTTSSLSASLGDRVTISCRASQDINKYLNWYQQQPDGTVKLLIYYTSRLHSGVPSRFSGRGSGTDYSLTISNLEQEDIATYFCQQGSTLPYTFGGGTKLEIK
notes: murine mAb, hybridoma CNCM I-4773, group G2
B2: m213B10 (antibody, V domains shown)
VH: B1 VH with P9S, K63R
VL: B1 VL with N30S, V44I, S76T, T93A
notes: murine mAb, hybridoma CNCM I-4774, group G2
B3: m219D6 (antibody, V domains shown)
VH: B1 VH with A16D, T28S, Y33F, A72T, S84N
VL: B1 VL with N30S
notes: murine mAb, hybridoma CNCM I-4736, group G2
B4: m214F8 (antibody, V domains shown)
VH: B1 VH with P9S, M20L, K63R
VL: B1 VL with I21F, N30S, V44I, S76T, T93A
notes: murine mAb, hybridoma CNCM I-4775, group G2
B5: m208F2 (antibody, V domains shown)
VH: B1 VH with H35Y, I48L, G66D, S77N
VL: B1 VL with N30S, V44I, L78V
notes: murine mAb, hybridoma CNCM I-4757, group G2; also called murine 208F2

Target: T1, monkey IGF-1R (on COS-7 cells) (African green monkey)
Assay: cell-based or functional assay

% internalisation	ΔMFI	Binder
73%	83 MFI	B1
74%	84 MFI	B2
71%	80 MFI	B3
71%	76 MFI	B4
74%	53 MFI	B5

Target: T2, human IGF-1R (native, on cells) (human, UniProt P08069 31-1367)
T2 construct: also called hIGF-1R; native IGF-1R on MCF-7 cells
Assay: FACS on MCF-7 cells, 4°C; inset table, axis log [M]
Procedure: The binding properties of a series of anti-IGF-1R antibodies were evaluated by FACS analyses on the human MCF-7 breast adenocarcinoma cell line (ATCC#HTB-22) using increasing antibody concentrations. For that purpose, cells (1×10⁶ cells/ml) were incubated with anti-IGF-1R antibodies for 20 min. at 4° C. in FACS buffer (PBS, 0.1% BSA, 0.01% NaN₃). They were then washed 3 times and incubated with the appropriate secondary antibody coupled with Alexa 488 for 20 additional minutes at 4° C. in the dark before being washed 3 times in FACS buffer. The binding of anti-IGF-1R antibodies was immediately performed on viable cells which were identified using propidium iodide (that stains dead cells). The maximum of signal intensity obtained with each antibody was designed as Bₘₐₓ and expressed in mean of fluorescence intensity (MFI). The EC₅₀ of binding expressed in molarity (M) was calculated using a nonlinear regression analysis (GraphPad Prims 4.0).

EC50	Binder
0.526 nM	B5

Target: T3, rhIR protein (R&D Systems, cat No 1544-IR/CF) (human, UniProt P06213-2 28-944)
T3 construct: extracellular domain; bought; also called rh Insulin R; recombinant human Insulin Receptor
Assay: ELISA, coated rhIR 1 ug/ml
Procedure: (§1) In addition three ELISA were performed (either before or after cloning) to study the binding of antibodies on the recombinant human (hIGF-1R) and murine (mIGF-1R) proteins, and on the recombinant human Insulin Receptor (hIR) protein. […] The plates were then blocked with PBS containing 0.5% gelatin (#22151, Serva Electrophoresis GmbH, Heidelberg, Germany) for 2 h at 37° C. Once the saturation buffer discarded by flicking plates, 100 μl of each supernatant dilution were added to the wells (either undiluted hybridoma supernatant either supernatant serial dilutions) and incubated for 1 h at 37° C. […] Then, ELISA plates were washed 3-times and the TMB (#UP664782, Uptima, Interchim, France) substrate is added. After a 10 min incubation time at room temperature, the reaction was stopped using 1 M sulfuric acid and the optical density at 450 nm is measured.

binding result	Binder
no binding	B1
no binding	B2
no binding	B3
no binding	B4
no binding	B5

Target: T4, rmIGF-1R protein (R&D Systems, cat No 6630-GR/Fc) (murine, UniProt Q60751 31-936)
T4 construct: extracellular domain; bought; also called murine extracellular domain (ECD) of IGF-1R; not shown: Fc only implied by the catalogue number; not described
T4 sequence (Q60751 31-936): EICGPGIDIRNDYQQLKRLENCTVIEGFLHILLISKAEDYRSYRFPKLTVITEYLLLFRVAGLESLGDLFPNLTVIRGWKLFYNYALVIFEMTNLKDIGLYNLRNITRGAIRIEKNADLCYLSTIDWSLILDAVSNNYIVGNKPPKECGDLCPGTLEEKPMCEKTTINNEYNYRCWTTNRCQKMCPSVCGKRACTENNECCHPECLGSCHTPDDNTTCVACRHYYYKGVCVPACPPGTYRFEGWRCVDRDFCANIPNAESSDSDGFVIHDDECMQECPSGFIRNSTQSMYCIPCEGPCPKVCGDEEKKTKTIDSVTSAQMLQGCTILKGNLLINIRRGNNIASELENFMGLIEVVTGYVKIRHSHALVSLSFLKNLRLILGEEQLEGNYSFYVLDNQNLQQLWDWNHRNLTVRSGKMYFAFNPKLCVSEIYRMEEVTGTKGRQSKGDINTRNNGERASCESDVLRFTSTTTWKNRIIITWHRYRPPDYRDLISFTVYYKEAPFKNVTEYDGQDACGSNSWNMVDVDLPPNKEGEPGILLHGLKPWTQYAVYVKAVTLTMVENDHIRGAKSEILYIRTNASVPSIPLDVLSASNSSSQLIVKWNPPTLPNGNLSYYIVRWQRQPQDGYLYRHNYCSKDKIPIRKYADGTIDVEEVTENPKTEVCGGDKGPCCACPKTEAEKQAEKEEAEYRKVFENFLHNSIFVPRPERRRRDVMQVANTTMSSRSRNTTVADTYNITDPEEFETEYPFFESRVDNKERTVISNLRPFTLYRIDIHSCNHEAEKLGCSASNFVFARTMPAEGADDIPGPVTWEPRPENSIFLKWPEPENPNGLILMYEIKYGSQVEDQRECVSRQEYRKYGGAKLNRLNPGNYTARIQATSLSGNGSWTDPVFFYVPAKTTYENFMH
Assay: ELISA, coated rmIGF-1R (Table 8)
Procedure: as §1

binding result	Binder
no binding	B1
no binding	B2
no binding	B3
no binding	B4
no binding	B5

Target: T5, human insulin receptor (on cells) (human, UniProt P06213 28-1382)
T5 construct: whole, on cells; on stably transfected cells or on IM9 cells; also called hIR; IR
Assay: FACS on hIR+ transfected cells, 4°C
Procedure: (§2) In order to verify the absence of binding of both murine and chimeric antibodies on hIR, a stable cell line expressing the human IR was used. The recognition of human cell surface hIR by both murine and chimeric Ab was performed by FACS analyses. Increasing concentrations of either the murine or the chimeric mAbs were incubated on the hIR′ transfected cell line for 20 minutes at 4° C. in FACS buffer (PBS, 0.1% BSA, 0.01% NaN₃). Cells were then washed 3 times and incubated with the appropriate secondary antibody coupled with Alexa 488 before being incubated for 20 additional minutes at 4° C. in the dark and then washed 3 times in FACS buffer. The binding of anti-IGF-1R antibodies was immediately performed on viable cells which were identified using propidium iodide (that stains dead cells). The binding EC₅₀ expressed in molarity (M) was calculated using a nonlinear regression analysis (GraphPad Prims 4.0). […] The c9G4 was introduced as an irrelevant antibody (isotype control).

Binder	binding result
B1	no binding (tested: log [M] about -6.5 (about 3e-7 M))
B3	no binding (tested: log [M] about -6.5 (about 3e-7 M))
B5	no binding (tested: log [M] about -6.5 (about 3e-7 M))

Target: T2, human IGF-1R (native, on cells)
Assay: FACS, Tf hIGF1R+ cells, Ab 5 ug/ml

MFI	Binder
2190 MFI	B1
2060 MFI	B2
2110 MFI	B3
2140 MFI	B4
2200 MFI	B5

Target: T5, human insulin receptor (on cells)
Assay: FACS on IM-9 cells (express hIR), 4°C
Procedure: as §2
For this FACS analysis, the protocol was the same as the one described previously and murine anti-IGF-1R antibodies were used in order to prevent the cross reactivity of the secondary anti-human Ab (IM9 cells express human Ig on their cell surface).

Binder	binding result
B2	no binding (tested: log [M] about -6.5 (about 3e-7 M))
B4	no binding (tested: log [M] about -6.5 (about 3e-7 M))

Target: T1, monkey IGF-1R (on COS-7 cells)
Assay: FACS, Cos-7 (monkey IGF1R+), Ab 5 ug/ml

MFI	Binder
125 MFI	B1
122 MFI	B2
114 MFI	B3
132 MFI	B4

Target: T4, rmIGF-1R protein (R&D Systems, cat No …)
Assay: ELISA, coated rm IGF-1R, SNT 5 ug/ml
Procedure: as §1

D.O 450 nm	Binder
0.102 D.O 450 nm	B1
0.127 D.O 450 nm	B2
0.112 D.O 450 nm	B3
0.102 D.O 450 nm	B4
0.099 D.O 450 nm	B5

Target: T2, human IGF-1R (native, on cells)
Assay: cell-based or functional assay

HalfLife (decay of cell-surface bound antibody on MCF-7 at 37°C)	Binder
14.3 min (unit from p-0380; none on the sheet)	B1
12.8 min (unit from p-0380; none on the sheet)	B2
17.9 min (unit from p-0380; none on the sheet)	B3
16.8 min (unit from p-0380; none on the sheet)	B4
11.1 min (unit from p-0380; none on the sheet)	B5

Target: T1, monkey IGF-1R (on COS-7 cells)
Assay: FACS on COS-7 cells, 4°C; inset table, axis log [M]
Procedure: In order to evaluate the binding of anti-IGF-1R antibodies on monkey IGF-1R, the binding of both murine and chimeric anti-hIGF-1R antibodies was evaluated by FACS analyses on COS-7 cell line using increasing antibody concentrations. Cells (1×10⁶ cells/ml) were incubated with anti-IGF-1R antibodies for 20 minutes at 4° C. in FACS buffer (PBS, 0.1% BSA, 0.01% NaN₃). Then, cells were washed 3 times and incubated with the appropriate secondary antibody coupled with Alexa 488 before being incubated for 20 additional minutes at 4° C. in the dark and finally washed 3 times in FACS buffer. The binding of anti-IGF-1R antibodies was immediately evaluated on viable cells identified using propidium iodide (that stains dead cells). The binding EC₅₀ expressed in molarity (M) was calculated using a nonlinear regression analysis (GraphPad Prims 4.0).

EC50	Binder
0.758 nM	B5

Target: T2, human IGF-1R (native, on cells)
Assay: cell-based or functional assay
Remark: another data set of the same source

% remaining rh IGF1R	MFI 37°C (internalisation assay, MCF7)	Δ (MFI 4°C - MFI 37°C)	Binder
30%	115 MFI	271 MFI	B2
29%	111 MFI	275 MFI	B4
27%	94 MFI	261 MFI	B5

Target: T2, human IGF-1R (native, on cells)
Assay: cell-based or functional assay
Remark: another data set of the same source

hIGF-1R phosphorylation in response to IGF-1 (western blot, MCF-7)	Binder
> 80%	B1
> 80%	B2
> 80%	B3
> 80%	B4
> 80%	B5

Target: T2, human IGF-1R (native, on cells)
Assay: FACS, MCF7, 4°C, Ab 5 ug/ml
Procedure: Additionally an internalization assay was performed in order to select only internalizing antibodies. For this assay, the MCF7 tumor cell line was cultured in RMPI 1640 without phenol red with 1% L-glutamine and 10% of […] for 3 days before experiment. Cells were then detached using trypsin and 100 μl of a cell suspension at 4·10⁵ cell/ml are plated in 96-multiwell plates in RPMI1640 without phenol red with 1% L-glutamine and 5% FBS. After a 2 min centrifugation at 2000 rpm, cells were resupended in 50 μl of hybridoma supernatant or control antibody solutions (positive and isotype controls at 1 μg/ml). After a 20 min incubation time at 4° C., cells were centrifuged 2 min at 2000 rpm and resuspended in either cold (4° C.) or warm (37° C.) complete culture medium. Cells were then incubated for 2 hours either at 37° C. or at 4° C. Then cells were washed three times with FACS buffer. An Alexa 488-labeled goat anti-mouse IgG antibody was incubated for 20 minutes and cells were washed three times before FACS analysis on propidium iodide negative cell population.

MFI 4°C	Binder
390 MFI	B1
386 MFI	B2
349 MFI	B3
386 MFI	B4
355 MFI	B5
